Article PMC12240809

Molecular target: V5–FoTO1 (Taxus media)
Assay: co-IP; lysate of N. benthamiana leaves co-expressing both proteins; anti-V5 antibody on protein G magnetic beads, blot with anti-HA-HRP; lysates incubated 15 min with no compound, 45 μM taxadiene or a mock terpene (caryophyllene); extraction buffer 50 mM Tris pH 7.5, 150 mM NaCl, 0.6% NP-40, 0.6% CHAPS, 1 mM β-mercaptoethanol

Chain of T5αH–HA (Q6WG30 whole entry): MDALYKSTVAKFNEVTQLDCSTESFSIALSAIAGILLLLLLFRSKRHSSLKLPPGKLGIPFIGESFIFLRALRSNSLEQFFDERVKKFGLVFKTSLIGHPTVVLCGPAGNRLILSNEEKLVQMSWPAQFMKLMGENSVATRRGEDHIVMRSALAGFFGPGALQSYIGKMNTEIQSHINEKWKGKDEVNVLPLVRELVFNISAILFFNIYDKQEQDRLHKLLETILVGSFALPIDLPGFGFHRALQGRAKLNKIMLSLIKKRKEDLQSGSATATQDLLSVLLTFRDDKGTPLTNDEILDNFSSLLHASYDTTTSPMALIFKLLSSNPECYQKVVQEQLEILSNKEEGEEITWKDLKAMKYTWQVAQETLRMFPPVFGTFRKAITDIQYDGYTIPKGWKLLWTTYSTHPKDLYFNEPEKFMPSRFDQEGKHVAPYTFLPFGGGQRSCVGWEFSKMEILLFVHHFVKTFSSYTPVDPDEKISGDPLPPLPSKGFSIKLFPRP

## T5αH–HA (from UniProt Q6WG30 1-499) (enzyme)
  fold increase of the co-IP signal with 45 μM taxadiene: 4 fold
